{"source": "paper PMC11986026", "experiment_in_all_cases": "cryo-EM structure; purified Wzc at ~2 mg/ml in LMNG, incubated with 1 mM ADP and 10 mM MgCl2 at 4 °C for 1 h; maps refined without symmetry (C1) or with C8 symmetry; octamer of one protein", "key": {"[1]": {"target": "Wzc^K540M3YE (K540M, Y718E, Y717E and Y715E) from E. coli serotype K30 (E. coli K30) (UniProt P76387)"}, "[2]": {"target": "Wzc^K540M3YE_N711Y (K540M, Y718E, Y717E, Y715E and N711Y) from E. coli serotype K30 (E. coli K30) (UniProt P76387)"}, "[3]": {"target": "Wzc^K540M2YE (K540M, Y718E, Y717E) from E. coli serotype K30 (E. coli K30) (UniProt P76387)"}}, "data": [{"substance": "Wzc^K540M3YE (K540M, Y718E, Y717E and Y715E) from E. coli serotype K30 (from UniProt P76387 1-720) (enzyme)", "values": [{"measurement": "stoichiometry N", "setting": "[1]", "value": 8}]}, {"substance": "Wzc^K540M3YE_N711Y (K540M, Y718E, Y717E, Y715E and N711Y) from E. coli serotype K30 (from UniProt P76387 1-720) (enzyme)", "values": [{"measurement": "stoichiometry N", "setting": "[2]", "value": 8}]}, {"substance": "Wzc^K540M2YE (K540M, Y718E, Y717E) from E. coli serotype K30 (from UniProt P76387 1-720) (enzyme)", "values": [{"measurement": "stoichiometry N", "setting": "[3]", "value": 8}]}]}
